Publication doi:10.1101/2021.03.04.433768 (bioRxiv, 2021)

Target: HexaPro, a prefusion construct of the SARS-CoV-2 spike (SARS-CoV-2, Wuhan-Hu-1 reference spike …, UniProt P0DTC2, stabilised)
Experiment: negative-stain EM

B1: Nb56 (llama nanobody, monomer) (VHH)
VHH: QVQLQESGGGLVQAGDSLRLSCVASERTFRRYGMGWFRQAPGKEREFVAAVDRSHTKTGYADFVKGRFTISTNYENMVYLQMNSLKPEDTAVYYCAAPSYEKGSDPTSWNTDRGYDYWGQGTQVTVSS
B1: binds.
